Experimental findings from article PMC10673843 (2023) are described below.

This assay addresses CD44 (isoform 4), Fc-fused (human). Kind of assay: SPR; apparent KD, dimeric Fc-fused target. In general terms: Surface plasmon resonance follows binding to a sensor surface in real time, without labels.

Chain of CD44 (isoform 4), Fc-fused (human) (chain, as listed by the source): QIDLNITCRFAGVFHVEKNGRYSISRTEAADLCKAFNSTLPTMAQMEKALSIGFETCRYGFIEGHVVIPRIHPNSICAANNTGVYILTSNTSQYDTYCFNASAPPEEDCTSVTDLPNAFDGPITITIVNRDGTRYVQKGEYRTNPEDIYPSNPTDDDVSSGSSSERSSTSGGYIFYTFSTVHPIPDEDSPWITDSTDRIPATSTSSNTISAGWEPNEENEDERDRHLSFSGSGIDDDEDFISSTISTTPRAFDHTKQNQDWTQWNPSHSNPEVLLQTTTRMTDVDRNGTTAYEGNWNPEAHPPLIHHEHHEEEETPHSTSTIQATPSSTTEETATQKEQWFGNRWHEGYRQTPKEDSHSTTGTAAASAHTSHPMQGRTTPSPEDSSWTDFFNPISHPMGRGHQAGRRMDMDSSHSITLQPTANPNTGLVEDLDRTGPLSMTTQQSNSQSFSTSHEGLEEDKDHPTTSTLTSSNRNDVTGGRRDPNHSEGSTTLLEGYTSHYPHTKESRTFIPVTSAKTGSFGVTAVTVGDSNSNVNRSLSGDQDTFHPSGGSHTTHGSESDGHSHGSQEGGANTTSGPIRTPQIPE

B1: BIWA4 (bivatuzumab), as human IgG4 (antibody, V domains shown)
VH: EVQLVESGGGLVKPGGSLRLSCAASGFTFSSYDMSWVRQAPGKGLEWVSTISSGGSYTYYLDSIKGRFTISRDNAKNSLYLQMNSLRAEDTAVYYCARQGLDYWGRGTLVTVSS
VL: EIVLTQSPATLSLSPGERATLSCSASSSINYIYWYQQKPGQAPRLLIYLTSNLASGVPARFSGSGSGTDFTLTISSLEPEDFAVYYCLQWSSNPLTFGGGTKVEIK
For B1, the Kd was determined as 48 nM.
